Consider 1 molecule from US20240254184A1 (SALUBRIS BIOTHERAPEUTICS, published 2024).

The assay has as its target T1, recombinant mouse CTLA-4 protein (mouse, UniProt P09793 36-162, limits assumed).
T1 construct: also called CTLA-4 protein from mice
As to the kind of experiment: ELISA, CTLA-4 protein coated on plate, anti-human IgG Fc-peroxidase detection. The procedure: The binding activity of the anti-CTLA-4-IL-15Ra-sushi-IL-15 fusion protein to recombinant CTLA-4 protein which originated from different species, including human, cynomolgus monkey, rat, and mouse, was determined by Enzyme Linked Immunosorbent Assay (ELISA). Briefly, 96-well plates were coated overnight at 4° C. with […] of CTLA-4 protein diluted in PBS. Plates were blocked with 1% bovine serum albumin (BSA) for an hour at room temperature, and then incubated for additional 2 hours with the anti-CTLA-4-IL-15Ra-sushi-IL-15 fusion protein, Ipilimumab, or human IgG1 isotype control, at a 2-fold serial dilution starting from 1 μg/mL. Goat anti-human IgG (Fc specific)-peroxidase antibody (Sigma, 1:5000 dilution) was added to the plates and incubated for 1 hour at room temperature. After washing, the 3, 3′, 5, 5′-Tetramethylbenzidine (TMB) substrate was added to the wells to develop color and the absorbance at 450 nm was measured using the Multiskan plate reader (Thermo). Optical Density 450 (OD450) values were plotted against antibody concentration.

B1: Ipilimumab (antibody, V domains shown)
VH: QVQLVESGGGVVQPGRSLRLSCAASGFTFSSYTMHWVRQAPGKGLEWVTFISYDGNNKYYADSVKGRFTISRDNSKNTLYLQMNSLRAEDTAIYYCARTGWLGPFDYWGQGTLVTVSS
VL: not shown
notes: also called anti CTLA-4 antibody; CTLA-4 antibody
In the case of B1, the binding result was “no binding”.
